Stoichiometry N and Kd data for two substances are collected here from PMC5407808.

Data set [1] deals with HexA-6His (Photorhabdus luminescens TT01). Description: SEC + other: dynamic light scattering; gel filtration of purified HexA-6His on a Superdex 200 column; DLS of the HexA peak fraction from gel filtration.
In data set [2] the test system is HexA-6His (Photorhabdus luminescens TT01). In words: SPR. The note with it: 5' biotin on forward primer (PpcfA-Btn_fwd; position implied); SPR (Biacore T200, streptavidin chip, ~300 RU DNA): HBS-EP+ 10 mM HEPES pH 7.4, 150 mM NaCl, 3 mM EDTA, 0.05% Surfactant P20, 25 C …. A general note: Surface plasmon resonance follows binding to a sensor surface in real time, without labels.

For HexA-6His (natural protein), the stoichiometry N in data set [1] worked out at 4.

Regarding PpcfA promoter fragment (400 bp), the equilibrium dissociation constant (Kd) in data set [2] came to 1.3 µM.

As a reminder, the stoichiometry N is a count of units in the complex or per binding partner. One may read the Kd as the free concentration of one partner at which half of the binding sites on the other are occupied at equilibrium, for simple one-to-one binding. A higher Kd goes with a looser complex.
